# In paper PMC9706586 (Theranostics, 2022):
# T1: CD20 (human, UniProt P11836 1-297)
# T1 construct: CD20, the antigen of rituximab; His-tagged, captured on the anti-His chip; also called antigen CD20; hCD20
# T1 sequence (looked up): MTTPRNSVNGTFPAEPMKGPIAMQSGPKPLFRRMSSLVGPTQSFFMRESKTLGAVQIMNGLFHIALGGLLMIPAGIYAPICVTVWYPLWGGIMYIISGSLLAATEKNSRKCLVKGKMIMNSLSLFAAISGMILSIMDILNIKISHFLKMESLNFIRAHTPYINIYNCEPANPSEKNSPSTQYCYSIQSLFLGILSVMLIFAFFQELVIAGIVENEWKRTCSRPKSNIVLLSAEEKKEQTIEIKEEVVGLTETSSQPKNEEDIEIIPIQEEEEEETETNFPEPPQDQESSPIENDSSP
# T2: FcγRIIb (human, UniProt P31994 43-217)
# T2 construct: human FcγRIIb, extracellular domain; source: HEK293F, secreted, purified (HisTrap HP); not shown: His6, C-terminal, kept
# T2 sequence (looked up): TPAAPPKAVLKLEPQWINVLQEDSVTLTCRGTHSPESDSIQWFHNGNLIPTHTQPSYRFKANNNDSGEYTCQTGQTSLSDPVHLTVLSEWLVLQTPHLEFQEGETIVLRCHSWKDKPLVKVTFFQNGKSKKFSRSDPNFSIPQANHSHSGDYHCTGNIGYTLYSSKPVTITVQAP
# T3: FcγRIIa^H131 (human, UniProt P12318 34-217)
# T3 construct: The methods name FcγRIIa only; source: HEK293F, secreted, purified (HisTrap HP); not shown: His6, C-terminal, kept
# T3 sequence (looked up): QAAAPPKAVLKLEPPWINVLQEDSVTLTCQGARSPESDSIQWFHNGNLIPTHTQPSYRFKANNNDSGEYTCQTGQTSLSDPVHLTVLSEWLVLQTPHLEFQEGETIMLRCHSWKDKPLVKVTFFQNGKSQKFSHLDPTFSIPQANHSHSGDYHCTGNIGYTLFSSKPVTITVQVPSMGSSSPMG
# Key:
# Assay in all cases: SPR; Biacore T200, CM5 chip with immobilised anti-His antibody, 20 °C; His-tagged receptor or antigen captured; serial dilutions of anti-CD20 X-body, IgG or IgA injected (120 s binding, 240 s dissociation, 30 µL/min); 1:1 binding kinetic model or steady-state affinity model
# Conditions in all cases: both partners purified
# CD20 = biological target: T1, CD20
# FcγRIIb = biological target: T2, FcγRIIb
# FcγRIIa^H131 = biological target: T3, FcγRIIa^H131
# FcγRIIIa^F158 = biological target: T4, FcγRIIIa^F158 (human, UniProt P08637 17-208)
# T4 construct: source: HEK293F, secreted, purified (HisTrap HP); not shown: His6, C-terminal, kept
# T4 sequence (P08637 17-208): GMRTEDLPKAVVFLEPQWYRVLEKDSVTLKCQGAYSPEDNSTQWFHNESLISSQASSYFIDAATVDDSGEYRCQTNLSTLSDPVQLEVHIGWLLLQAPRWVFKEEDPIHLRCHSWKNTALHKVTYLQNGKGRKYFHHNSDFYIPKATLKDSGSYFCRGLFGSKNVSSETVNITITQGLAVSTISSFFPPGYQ
binder,measurement,setting,value
"Rituximab X-body (antibody, human IgG1, kappa, 6×G4S linker; IgA2 Fc (hinge, CH2, CH3) without the tailpiece region; Tetramer of two heavy chains and two chimeric chains: two Fabs, one IgG1 Fc, one IgA2 Fc; also called anti-CD20 X-body; anti-human CD20 X-body with 6×G4S linker; source: HEK293F, transfected (pTT5), purified (HiTrap Protein A, Superdex 200 Increase); copies: 2 + 2) heavy: not shown QIVLSQSPAILSASPGEKVTMTCRASSSVSYIHWFQQKPGSSPKPWIYATSNLASGVPVRFSGSGSGTSYSLTISRVEAEDAATYYCQQWTSNPPTFGGGTKLEIKRTVAAPSVFIFPPSDEQLKSGTASVVCLLNNFYPREAKVQWKVDNALQSGNSQESVTEQDSKDSTYSLSSTLTLSKADYEKHKVYACEVTHQGLSSPVTKSFNRGECGGGGSGGGGSGGGGSGGGGSGGGGSGGGGSVPPPPPCCHPRLSLHRPALEDLLLGSEANLTCTLTGLRDASGATFTWTPSSGKSAVQGPPERDLCGCYSVSSVLPGCAQPWNHGETFTCTAAHPELKTPLTANITKSGNTFRPEVHLLPPPSEELALNELVTLTCLARGFSPKDVLVRWLQGSQELPREKYLTWASRQEPSQGTTTYAVTSILRVAAEDWKKGETFSCMVGHEALPLAFTQKTIDRMAGK",Kd,CD20,8.04 nM
same,Kd,FcγRIIb,0.00422 nM
same,Kd,FcγRIIa^H131,0.0364 nM
same,Kd,FcγRIIIa^F158,0.0216 nM
